Experiments:
[1] = test system: Nc1ncnc2c1ncn2[C@@H]1O[C@H](COP(=O)(O)OP(=O)(O)OP(=O)(O)O)[C@@H](O)[C@H]1O; assay: purified protein
[2] = molecular target: ClpP1P2 (ClpP1) (Mycobacterium tuberculosis, UniProt P9WPC3+P9WPC5); assay type: biochemical
ClpP1P2 (ClpP1), sequence (P9WPC5 whole entry, looked up): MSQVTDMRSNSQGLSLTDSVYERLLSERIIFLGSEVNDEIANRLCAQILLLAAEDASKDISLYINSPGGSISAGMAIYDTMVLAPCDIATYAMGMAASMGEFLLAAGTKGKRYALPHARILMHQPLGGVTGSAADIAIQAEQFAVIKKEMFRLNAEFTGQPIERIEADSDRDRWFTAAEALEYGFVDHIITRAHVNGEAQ
ClpP1P2 (ClpP1), sequence (P9WPC3 whole entry, looked up): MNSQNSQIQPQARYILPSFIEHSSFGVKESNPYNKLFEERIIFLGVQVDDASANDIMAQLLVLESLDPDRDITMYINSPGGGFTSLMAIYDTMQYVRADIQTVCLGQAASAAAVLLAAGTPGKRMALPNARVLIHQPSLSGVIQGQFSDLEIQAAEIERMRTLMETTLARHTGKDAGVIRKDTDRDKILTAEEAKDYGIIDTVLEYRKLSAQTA

ClpC1 (Mycobacterium tuberculosis H37Rv)
Km [1]: 1400 ± 100 µM

O=c1oc(Cl)c(Cl)c2ccccc12 [DCC, 3,4-Dichloroisocoumarin]
IC50 [2]: 80 µM
